In this assay the target is HtpGMtb_C (C-terminal domain of HtpGMtb, wild type) (M. tuberculosis H37Rv). The experiment in a line: SEC-MALS.

HtpGMtb_C (C-terminal domain of HtpGMtb, wild type) (domain or fragment), sequence (A1KKZ1 417-645 limits assumed): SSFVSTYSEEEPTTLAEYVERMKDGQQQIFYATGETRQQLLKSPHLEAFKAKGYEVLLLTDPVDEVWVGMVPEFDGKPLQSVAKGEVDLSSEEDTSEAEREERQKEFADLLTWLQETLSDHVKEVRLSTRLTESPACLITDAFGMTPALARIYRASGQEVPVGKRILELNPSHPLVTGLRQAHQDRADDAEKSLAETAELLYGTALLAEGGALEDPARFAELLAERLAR

Substance “HtpGMtb_C (C-terminal domain of HtpGMtb, wild type) (domain or fragment)” had a stoichiometry N of 2.

The stoichiometry N is a count of units in the complex or per binding partner.
